From article PMC4648099

Columns and labels:
[1] = target: T1, thrombin (alpha-thrombin) (UniProt P00734;P00734 328-363;364-622); assay: competition (FAM fluorescence displacement); fit of pair TBA-FAM/TBA; 100 mM KCl; Fluorescence assays: 10 mM sodium cacodylate pH 7.2, 100 mM KCl, 20 °C, 20 nM FAM-aptamer (100 nM thrombin in displacement); EMSA: 1xTBE pH 8.3, 100 mM KCl (ann)
[2] = target: T1, thrombin (alpha-thrombin); assay: competition (FAM fluorescence displacement); TBA-FAM Kd fixed at 15 nM; 100 mM KCl; Fluorescence assays: 10 mM sodium cacodylate pH 7.2, 100 mM KCl, 20 °C, 20 nM FAM-aptamer (100 nM thrombin in displacement); EMSA: 1xTBE pH 8.3, 100 mM KCl (ann)
[3] = target: T1, thrombin (alpha-thrombin); assay: competition (FAM fluorescence displacement); fit of pair TBA-FAM/TBA-N8; 100 mM KCl; Fluorescence assays: 10 mM sodium cacodylate pH 7.2, 100 mM KCl, 20 °C, 20 nM FAM-aptamer (100 nM thrombin in displacement); EMSA: 1xTBE pH 8.3, 100 mM KCl (ann)

| Binder | Kd [1] [nM] | Kd [2] [nM] | Kd [3] [nM] |
| --- | --- | --- | --- |
| GGTTGGTGTGGTTGG (structured_DNA) [TBA] | 15.8 | 23.7 | – |
| GGTTGGTGTGGTTGG (structured_DNA, 3' hexaethyleneglycol linker) [TBA-FAM] | 11.3 | – | 18.3 |
